Patent US20100184663A1

Experiments:
[1] = molecular target: HIV-1 gp41 (HXB2 strain) (HIV-1 HXB2) (UniProt P04578); assay: cell-based or functional assay
[2] = molecular target: HIV-1 gp41 (JRFL strain) (HIV-1 JRFL); assay: cell-based or functional assay

Q: What does the source list for “Fuzeon (from UniProt P04578 638-673) (peptide)”?
A: IC50 (HXB2), pseudovirion entry [1]: 3.7 nM; IC50 (HXB2), single-cycle viral infectivity assay [1]: 3.7 nM; IC50 (JRFL), pseudovirion entry [2]: 5 nM
